# In patent publication US6310180:
# Molecular target: substrate IV, H-Lys-Ala-Arg-Val-Nle-Phe(p-NO2)-Glu-Ala-Nle-NH2 (HIV)
# Test: not given
row,Substance,"kcat/Km, hydrolysis of substrate IV"
1,"[SPro^39, Abu^67,95]-HIV-1 PR (enzyme)","119000 M^-1, S^-1"
2,recombinant HIV-1 PR (enzyme),"121000 M^-1, S^-1"
3,"[Ala^38, SPro^39, Abu^67,95]-HIV-1 PR (enzyme)","98400 M^-1, S^-1"
4,"[Leu-NHCH2-Thz^38-39, Abu^67,95]-HIV-1 PR (enzyme)","36300 M^-1, S^-1"

# Test system: substrate IV, H-Lys-Ala-Arg-Val-Nle-Phe(p-NO2)-Glu-Ala-Nle-NH2
# Test: steady-state kinetics of substrate IV hydrolysis at 22° C., RP HPLC; the filing calls Km the binding affinity
row,Substance,Km
1,recombinant HIV-1 PR,10.1 µM
2,"[SPro^39, Abu^67,95]-HIV-1 PR",11.9 µM
3,"[Ala^38, SPro^39, Abu^67,95]-HIV-1 PR",8.2 µM
4,"[Leu-NHCH2-Thz^38-39, Abu^67,95]-HIV-1 PR",11.4 µM
